Results as given in the FLAb antibody collection (doi:10.1101/2023.12.08.570889).
Positions count from the first letter of the chain named.

B1: unnamed (protein)
chain 1: EVQLLESGGGLVQPGGSLRLSCAASGFTFSQYGMDWVRQAPGKGLEWVSGIGPSGGSTVYADSVKGRFTISRDNSKNTLYLQMNSLRAEDTAVYYCARDGSAYYYAFDVWGQGTTVTVSS
chain 2: DIQMTQSPSSLSASVGDRVTITCQASQDISNYLNWYQQKPGKAPKLLIYDASNLETGVPSRFSGSGSGTDFTFTISSLQPEDIATYYCQQADSFPVTFGGGTKVEIK
B2: unnamed (protein)
chain 1: B1 chain 1 with A97T, S101P, A102W
chain 2: B1 chain 2
B3: unnamed (protein)
chain 1: B1 chain 1 with A97T, S101P, V109I
chain 2: B1 chain 2
B4: unnamed (protein)
chain 1: B1 chain 1 with S101P, A102S
chain 2: B1 chain 2
B5: unnamed (protein)
chain 1: B1 chain 1 with A97T, S101P, A102S, A106G
chain 2: B1 chain 2
B6: unnamed (protein)
chain 1: B1 chain 1 with A97T, S101P, Y103W, V109Y
chain 2: B1 chain 2
B7: unnamed (protein)
chain 1: B1 chain 1 with A97T, D99G, S101P, A102S, Y103W
chain 2: B1 chain 2
B8: unnamed (protein)
chain 1: B1 chain 1 with A97T, S101P, V109Y
chain 2: B1 chain 2
B9: unnamed (protein)
chain 1: B1 chain 1 with S101P, V109Y
chain 2: B1 chain 2
B10: unnamed (protein)
chain 1: B1 chain 1 with S101P, A106G
chain 2: B1 chain 2

Target: FXI
Experiment: Kd (SPR)

Binder | Kd [nM]
B1 | 270
B2 | 79.8
B3 | 109
B4 | 134
B5 | 95.3
B6 | 78.2
B7 | 210
B8 | 147
B9 | 106
B10 | 175
